21 sequences from the DeepSol protein solubility set can be followed below.

The data set is described as follows: soluble on expression in E. coli; label from the status in PepcDB or PDB records.
For the sequence “MAHHHHHHMEQLNDDDERENLYFVDHGRPKYKHTDLLAMLRDAQSAIIRFSEENRDIIADAVNFASTSERANTLRKLEEAYLGIVKVQAPMVRCSRPAFRKLCRLWGTDVSYTHMIMADSFTCSDAARHADFSMYAGEERLVAQIASCSGPVAAEAATLLAPYCDAIDLNCGCPQRWIIKEGLGSALLQKPEVVADMVRCIHNGLSGGVDLPCVVKMRVSNDVGRSVDFARQCEAAGCGWITVHGRTPSCSAHAPVRLDAIRTIRECVSVPVVANGGVNNPQTALKTSLTTGAGAVMSATGLLANPACFYVPREGELLLFAPQRRGVDVALEASMGPCRGADEGASTAGSENSAWLKGLPGCPVEVISDFIRLSCVTDLASKATSMHLLKMGGNYLSPTERVFLAQMHSSFSVVSALQQLGLYTQDGKFRVVESVT”, the “soluble on expression in E. coli” value was “soluble”.

Turning to “MSLSPAGGPDLAALAASSTSIDLPYLLAGVENENELDLYVVPSGKPVAVRAATFDSERQVYSLALDNPQRILTWTPASAPGGDEGNSTSLPLVPPGTVVYTGSSLNPVVTEQEGYPALDLLDQERLIITFPMDSGLPPILVVFKSPRYEAGTSTGHGLEHHHHHH”, the “soluble on expression in E. coli” value is “soluble”.

“GPGSMAVNILKAGFPVSVWNRTASKCDDLVAAGATACATPAELAAASDVVFTNLSDSPDVMEVVFGPNGVAAGICEGAIFVDNSTIKPSVAQEIARRLWKEKKVRALDAPVSGGDIGARNGTLTVMVGGDAAALATVLPVLLAVGKKVTHIGDCGAGQVCKAANQIMVAAQMVALGEILVFCEKCGVSGPTVIEAIKSGSAQCWTLDVKPDRLFAGNRAPGFKAALQSKDMGIVMDTAKEFGVPLPSTAVNTQLFQAMVQNGDGDRDNSAVVSVLERMANVHISEAERE”: the “soluble on expression in E. coli” value was “not soluble”.

On to “GMDNVAEYRKLIKQVLTEYDNLSRQSPETNYETCLVFDENHDNYLWLAVDWQGSKRIKYTYVHIRIKNEKIYIEEDYTEEGIATELMRLGVTNNDIVLAFHPPDVRKFTDFATA”, for which the “soluble on expression in E. coli” value is given as “soluble”.

In the case of “MGSDKIHHHHHHMKRVVITGMGIVSPFGVGKERNLEGLRETKVTIDRISSFDASNLPVQIAAEVRDFKPEEYINPKLVRRTDRFVHFALVSAKEAVEDAGINFEPYADRTATIIGSGMGGFLTLDSENNKFLSQGPSRVSPFLIPMILIDMASGVVAMEYGLKGPNFSSVSACASSLHAVALGALLIRHGYADVAVVGGTEATIAPLPITGFANMRALSRRNDDPKRASRPFDKDRDGFVMGEGGAVLILEAEEVAKSRGAKILAEIKGVGMTDDAYHFSAPDPEGRGAAEAMKLALKESSLAVEDIDYVSCHATSTPAGDEAELKAIKKVLGEHVKNVAINSSKALIGHLLGAAGASELVLAILQMQNSFVHGMPNLDNPIDEAKGTGLVGKEPVQMEIKNFIKNSFGFGGHNVSIVVGRYES”, the “soluble on expression in E. coli” value is “not soluble”.

Take “VKIRLHTLLAVLTAAPLLLAAAGCGSKPPSGSPETGAGAGTVATTPASSPVTLAETGSTLLYPLFNLWGPAFHERYPNVTITAQGTGSGAGIAQAAAGTVNIGASDAYLSEGDMAAHKGLMNIALAISAQQVNYNLPGVSEHLKLNGKVLAAMYQGTIKTWDDPQIAALNPGVNLPGTAVVPLHRSDGSGDTFLFTQYLSKQDPEGWGKSPGFGTTVDFPAVPGALGENGNGGMVTGCAETPGCVAYIGISFLDQASQRGLGEAQLGNSSGNFLLPDAQSIQAAAAGFASKTPANQAISMIDGPAPDGYPIINYEYAIVNNRQKDAATAQTLQAFLHWAITDGNKASFLDQVHFQPLPPAVVKLSDALIATISS”: the “soluble on expression in E. coli” value is on record as “soluble”.

As to “MDNMKRNMPYLPSFKLTDFDIKTLVQPILCPRSQEIQYYETLSKISTFAQSNINNDVFFSIIDNTFIQTLALQQIRFSLEKYPHQLHSFNIKLSCLADEDFVRELLSFHGAKFALEISELDCYTESKEIRENLSVLQANNIEIWLDDYHRNNKLANMSLGNILWDRIKIDKSFLKHADQESIQALEYFLAPFCLHGLIFEGAEYIEHHKMLKTSQSLTQGYYYFRPSPINSLDSKPRVAESIKLSYAG”, the “soluble on expression in E. coli” value is “not soluble”.

Regarding “AASQSTPWGIKAIYNNSNLTSTSGGAGINIAVLDTGVNTNHPDLSNNVEQCKDFTVGTNFTDNSCTDRQGHGTHVAGSALANGGTGSGVYGVAPEADLWAYKVLGDDGSGYADDIAEAIRHAGDQATALNTKVVINMSLGSSGESSLITNAVDYAYDKGVLIIAAAGNSGPKPGSIGYPGALVNAVAVAALENTIQNGTYRVADFSSRGHKRTAGDYVIQKGDVEISAPGAAVYSTWFDGGYATISGTSMASPHAAGLAAKIWAQSPAASNVDVRGELQTRASVNDILSGNSAGSGDDIASGFGFAKVQ”, the “soluble on expression in E. coli” value is listed as “soluble”.

For “MGHHHHHHSHMLLTPRQDEIVALAKANGRVLVDELAARFSVTPQTIRKDLNDLCDTRVLTRIHGGALFPSGNENVKYEARRAIASVEKQAIGAAAAALIPNNSSLFINIGTTTEAVGEALADHHELMVITNNINVANRLRVFPGIEVVIAGGVVRGSDGGIVGEAAVDFIRQFKVDFAVIGVSAIDEDGALLDFDFREVKVAQAIISNARHVILVSDSLKFERTAPVRIGHLSQVHTFITDHCPVDSIRSICADHDVRLIETEARDA”, the “soluble on expression in E. coli” value is reported as “soluble”.

Regarding “MFLQSNEHVGTYYAAVNPELIQPRQALEGDLDCEVLVVGAGFSGLHTALRLVEGGRQVCVIEASRIAWAASGRNGGQALPGWSSDLPPLEADLGYEGARRLWDGMLWAAGEMRELPQRHGFDCDYRVGHLWTAILPRRVGLLYDWQAEANRRWGYEGLRFVAKDELPEWIASERYLAGLYDPHAAHLNPLKLAFGLAAAIERAGGRIHERTRALNYREEGDGYRVRTEHGEIRCAALVLACNAYIDGLDSELSQRMLPVGTYQVATEPLGEERAKSLLPRNCCVTDNQFVLDYFRLTPDHRLLFGGGCTYLGGMPSDIRAATRPYLERVFPQLRGVALEYAWGGHIDCSMRRTPDIGRQGNRYWLQGYSGHGVLPSLAAARAVSDALLGDDETLALYQRLRNPKFPGGQRFAAPLEALGKAYYRLRDLFLEHHHHHH”, the “soluble on expression in E. coli” value is “not soluble”.

Take “MTLSIAHLGPPGTYAEQAAVLYVNWLTKSTGDEATLSPYPTISQSLHAVADGQAHLAVVPVENSIEGSVTTTLDALWQLDSLRIQLALVLPIVHTLISCASGLDKIETVYSHPQALAQCQGWLERFLPTVQIVPSNSTTEALQRLEQETTTAAIASSRAAQLYNLPILATGINDYPENCTRFWVVSQGEADAGYQTSKVPTSHTSLAFSMPANTPGALVKPLQIFAQLGINLSRIESRPTKRSLGEYLFFMDLEADVKESQMQSALAELTIHTEILKILGAYNVLPIGAFT”: the “soluble on expression in E. coli” value is “not soluble”.

As for “GASTRDYEIQRERIELGRCIGEGQFGDVHQGIYMSPENPALAVAIKTCKNCTSDSVREKFLQEALTMRQFDHPHIVKLIGVITENPVWIIMELCTLGELRSFLQVRKYSLDLASLILYAYQLSTALAYLESKRFVHRDIAARNVLVSSNDCVKLGDFGLSRYMEDSTYYKASKGKLPIKWMAPESINFRRFTSASDVWMFGVCMWEILMHGVKPFQGVKNNDVIGRIENGERLPMPPNCPPTLYSLMTKCWAYDPSRRPRFTELKAQLSTILEEEKAQQEE”, the “soluble on expression in E. coli” value is recorded as “soluble”.

As to “MGSDKIHHHHHHMVTQMLEGKKVAILVETEFIPEEIAAYRQHFEELGATVHFMSRLWGNETVQFVSDVDEIGKSLQYLDVNIDFQSVDVNEYAAVIMAANYTSVRLRYFQPPPGQQISPEQTRTAPAIQFFAQAMANHKIIKGLLCHGLWLLTPMPELLRGRKVICHEVVLADIANAGAVYVPPPVNSQPNDPGNIVVDRDLVTGRAGHDVYAFIDAIAHQIASQEQRCLETQRR”, the “soluble on expression in E. coli” value is listed as “not soluble”.

Regarding “MGSDKIHHHHHHMTLVSTLSFLKKLNKNNNKEWFDKNRSAYEEAKKEVKALVQLVIEKTAVFDPSIASLEPKDCMFRINRDVRFSKDKSPYKTNMGFMIAPGGKKSIKGCYYVHIEPGNCFIAGGIWMPMPEHLKLIRQEIDYNGDALKKIFSSKDVKKYFSDFDEESKLIRMPKDYEETHPYAEWLKLKSFTVTFPIDEAIFSDKKVVEEITKPFKGIHALNAFLNGALDS”, the “soluble on expression in E. coli” value is recorded as “not soluble”.

Turning to “MGSDKIHHHHHHMTEKVSRFPGVFPLIVIGVPGSVDKTHKKLAFAPNLNRWRDIDVEKYFKVFEVYLENDANLAALAEMMRNKHFGDRKNIVYILVREGIGGGIIIEGKLYKGSFNAAGEIGHMKMYDRGPCFCGRVGCWEANTSISHCVRQYEKKKPLPGNTMYEKFETLCRIYEEDPLAKEVLDEFTGILIDGIVNLVNILSPEIVIVGGEGVFLPESVFEVIVSETRRQVHPMDKEVSVEKGSLSNKEVVLEGTSILSSMMISERLV”, the “soluble on expression in E. coli” value was “not soluble”.

On to “MLPHSGRMVLIDRITRYGDDFVEAGAQVKPDHILLAGGMLPYTAFIELMAQAVGAYAGIQARKNARPVRLGFLPGTRKLEIFAQSVPVGTHLPATAHMSIQDAGVWACPTANCVGRMRRKLRPEHSFQTAFWHAPHSTCTAPNTMTEQLTPSEQAHIRRTTMTETVLITGSNRGIGKAAALEHHHHHH”, for which the “soluble on expression in E. coli” value was “not soluble”.

For the sequence “SAAKALKDLKNLPVSERNIDYKTKLLVGKMNGTAEDKPPQNSVPFDHNHPKGDEIEKPEAERVIVEIEYIESKDLNNVTQVDAVLKSLVTELDSKDWVLVCDALNTIRRLSIFHKEEMLHMLEKVILFIVKSLKNPRSAVSKTACMTSADIFSSYNDHTIDQLDLLLTQLLLKSSQDKRFVCEAAEKALVAMTAHVSPALLLPKLQPFLKNRNPRIRAKASTCFSRCVPRLGIEGIREYGIEKLVQAASSQLSDQLPESREAARAVLLELQTVYKKTTNVEPKEEHPEPVTWQIFCQSNLSPLSAQAVIRVTNVAGVAREGLVAGS”, the “soluble on expression in E. coli” value is listed as “soluble”.

In the case of “MQAHQSLHPSSAYLLDPRDTHHFIRKPTISMETTTEIPAGGATSLLPIVRAAKTPPIPLTVPCAIAGVMMEFECLLRGKRMLVNAMVYNVKTTIAGHPWE”, the “soluble on expression in E. coli” value is listed as “not soluble”.

As for “MGSDKIHHHHHHMSNCFNPANILLPKDGIDMEKWSVIACDQYTSQADYWKTVEEFVGDAPSTLNVVFPEIYLGNKKNDKNCACENGSCADDHTTMYASMSDSERIACINSTMEKYLSDGIIQQVVTDGYVLVERTTESGVRLGIVGLVDLDDYDFDPKNPTLIRATEGTVISRIPPRVKIREHAAIELPHVMLLVDDPVDKADDASDEGKLTDIYNIGNIEHGIIEYVYSLKDSFRKLYDTDLMQGGGHIRGYAIEGEAAKQVTAAFAKKQEQSGGFLFAVGDGNHSLATAKTCWENIRKSQKFTDEQLKTHPARYALVEICNLHSKALEFKPIHRLLTKVNVEDMLAFFNEQLKEQGLECAEGNEIIFEYVESSDSIDENASGYEARVCTYAINIINRGDRLPVEILQGILDKYIKSHEDTEIDYIHGDDALHRLVKETNGCGIFLQSIDKSTLFPAINAGGVLPRKTFSIGEANEKRYYMECHNIQVK”, the “soluble on expression in E. coli” value was “not soluble”.

As for “MGSDKIHHHHHHMNETVSLETREVRFLSVFDFDGTLTYRDSFVPFLRFAFGNRVFVRRMLRMAGPSLAYLCRRIDRDDLKARLIATFLTDVPVHVLEERALAYQNRFWETLMRPHALTAVADQVSSGSTVTICSASPSLLLRPFAEKLGVHLIATELEVVDGVLTGRIVGRNCRRDEKVCRLERHYGPLTQYSLRAWGDSRGDTELLAAALERFWKPFR”, the “soluble on expression in E. coli” value is listed as “not soluble”.

Regarding “GLDVAISQNGFFRLVDSNGSVFYSRNGQFKLDENRNLVNMQGMQLTGYPATGTPPTIQQGANPAPITIPNTLMAAKSTTTASMQINLNSTDPVPSKTPFSVSDADSYNKKGTVTVYDSQGNAHDMNVYFVKTKDNEWAVYTHDSSDPAATAPTTASTTLKFNENGILESGGTVNITTGTINGATAATFSLSFLNSMQQNTGANNIVATNQNGYKPGDLVSYQINNDGTVVGNYSNEQEQVLGQIVLANFANNEGLASQGDNVWAATQASGVALLGTAGSGNFGKLTNGALEASNVDLSK”, the “soluble on expression in E. coli” value is reported as “soluble”.
